Patent US20250257149A1

Columns and labels:
[1] = biological target: MUC1 tandem repeat peptide …-T(X)-… with Galβ1-3GalNAcalpha (TF) at T (human); test: antigen ELISA on TF-PDTR MUC1 peptide, purified antibody [panel Binding to TF-MUC1]
[2] = biological target: MUC1 tandem repeat peptide …-T(X)-… with GalNAcalpha (Tn) at T (human); test: antigen ELISA on Tn-PDTR MUC1 peptide, purified antibody [panel Binding to Tn-MUC1]
MUC1 tandem repeat peptide …-T(X)-… with GalNAcalpha (Tn) at T (human), sequence (peptide, as listed by the source): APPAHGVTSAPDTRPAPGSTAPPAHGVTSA

MUC1 tandem repeat peptide …-T(X)-… with Galβ1-3GalNAcalpha (TF) at T (human), sequence (peptide, as listed by the source): as above

PankoMab N54W (antibody) showed an EC50 (read off the curve) [1] of 8 ng/mL and an EC50 (read off the curve) [2] of 10 ng/mL.
